Measured values from the supplement of paper PMC7877785.
± gives the uncertainty stated by the source.

Assay: self-splicing fitness, log relative to wild type (ln ratio); higher = more splicing; Tetrahymena group I intron in knt gene, E. coli kanamycin selection, DiMSum; sequences stand for … in CUCUCU…GGAGGGAAAAGUUAUCAGGCAUGCACCUGGUAGCUAGUCUUUAAACCAAUAGAUUGCAUCGGUUUAAAAGGCAAGACCGUCAAAUUGCGGGAAAGGGGUCAACAGCCGUUCAGUACCAAGUCUCAGGGGAAACUUUGAGAUGGCCUUGCAAAGGGUAUGGUAAUAAGCUGACGGACAUGGUCCUAACCACGCAGCCAAGUCCUAAGUCAACAGAUCUUCUGUUGAUAUGGAUGCAGUUCACAGACUAAAUGUCGGUCGGGGAAGAUGUAUUCUUCUCAUAAGAUAUAGUCGGACCUCUCCUUAAUGGGAGCUAGCGGAUGAAGUGAUGCAACACUGGAGCCGCUGGGAACUAAUUUGUAUGCGAAAGUAUAUUGAUUAGUUUUGGAGUACUCGUGGUCG
Procedure, shortened: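 DiMSum derived fitness as the error-weighted combination of fold changes across replicates, kanamycin versus no kanamycin, normalised to wild type. E. coli BL21(DE3) held the library, which randomised all eight P1ex-region intron nucleotides within the knt kanamycin-resistance gene on pET-22b(+). Six replicate transformations grew overnight at 37°C or 30°C on LB agar with or without 25 μg/mL kanamycin, also containing 100 μg/mL carbenicillin, 50 μM IPTG and 0.2% rhamnose, and pooled colonies were amplicon-sequenced on an Illumina HiSeq 2500.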

Sequence | self-splicing fitness (ln) (30 °C) | self-splicing fitness (ln) (37 °C)
GAAGAGCAAUAUUACGUGCC | -3.3 ± 0.19 | -1.81 ± 0.23
UUCCAGCAAUAUUACGGCCU | -4.05 ± 0.42 | -1.58 ± 0.17
GCUAAGCAAUAUUACGGGUU | -2.18 ± 0.09 | -1.28 ± 0.089
AAUAAGCAAUAUUACGGGCA | -0.69 ± 0.1 | -0.292 ± 0.11
GACGAGCAAUAUUACGGGUU | -3.77 ± 0.18 | -2.75 ± 0.21
ACCCAGCAAUAUUACGCCGA | -1.26 ± 0.075 | -1.14 ± 0.082
GCUCAGCAAUAUUACGGAUG | -1.76 ± 0.094 | -1.12 ± 0.12
GGAUAGCAAUAUUACGCACU | -2.36 ± 0.15 | -1.05 ± 0.15
UCCAAGCAAUAUUACGAUGG | -1.01 ± 0.059 | 0.16 ± 0.083
ACCUAGCAAUAUUACGUUAA | -2.38 ± 0.14 | -1.9 ± 0.17
CCAAAGCAAUAUUACGGCAU | -3.72 ± 0.15 | -2.23 ± 0.15
AAUUAGCAAUAUUACGUACC | -0.499 ± 0.21 | -0.307 ± 0.29
GCAAAGCAAUAUUACGCCAC | -3.15 ± 0.27 | -1.93 ± 0.19
UUAUAGCAAUAUUACGCUCG | 0.392 ± 0.25 | 0.206 ± 0.22
GAGCAGCAAUAUUACGACGA | -0.16 ± 0.15 | 0.077 ± 0.17
UCUCAGCAAUAUUACGCGAA | -2.12 ± 0.17 | -1.85 ± 0.21
GCUAAGCAAUAUUACGACCU | -0.833 ± 0.1 | 0.599 ± 0.12
CAAGAGCAAUAUUACGCCGG | -2 ± 0.15 | -1.35 ± 0.24
GACCAGCAAUAUUACGAACG | -0.447 ± 0.075 | -0.466 ± 0.11
GGCCAGCAAUAUUACGACGU | -0.821 ± 0.083 | 0.2 ± 0.12
GGCGAGCAAUAUUACGUAAA | -2.28 ± 0.16 | -1.06 ± 0.15
AACAAGCAAUAUUACGGGAC | -2.86 ± 0.12 | -1.17 ± 0.12
GCCGAGCAAUAUUACGGCGU | -2.55 ± 0.13 | -0.897 ± 0.1
GAAAAGCAAUAUUACGGGGA | -1.38 ± 0.16 | -2.44 ± 0.23

Sequence | self-splicing fitness (ln) (30 °C) | self-splicing fitness (ln) (37 °C)
UGAGAGCAAUAUUACGAGUC |  | -3.22 ± 0.47
UGGAAGCAAUAUUACGUUCU | -3.42 ± 0.25 | -1.31 ± 0.17
CCUCAGCAAUAUUACGAGUG | -2.34 ± 0.14 | -0.953 ± 0.14
CCAAAGCAAUAUUACGUCAC | -4.61 ± 0.25 | -2.14 ± 0.19
GCACAGCAAUAUUACGGACC | -1.43 ± 0.11 | 0.156 ± 0.14
AUCAAGCAAUAUUACGAAGG | -3.36 ± 0.19 | -2.96 ± 0.26
GGCGAGCAAUAUUACGAGUG | -1.67 ± 0.19 | -1.47 ± 0.3
UGGGAGCAAUAUUACGAAAU | -1.47 ± 0.19 | 
UCUCAGCAAUAUUACGUGGC | -3.61 ± 0.31 | -2.55 ± 0.28
AGGAAGCAAUAUUACGUCGU | -2.6 ± 0.14 | -0.803 ± 0.12
UGUAAGCAAUAUUACGCAUU | -3.58 ± 0.28 | -2.08 ± 0.24
GCGAAGCAAUAUUACGUAGC | -3.43 ± 0.23 | -2.22 ± 0.23
GUCUAGCAAUAUUACGCAAC | -1.33 ± 0.087 | -0.643 ± 0.095
AAAUAGCAAUAUUACGAGCA | -1.4 ± 0.11 | -0.127 ± 0.11
CUAUAGCAAUAUUACGGGAU | -3.92 ± 0.25 | -0.972 ± 0.16
AUUAAGCAAUAUUACGGCUC | -0.973 ± 0.16 | 0.244 ± 0.17
AGGCAGCAAUAUUACGGGUA | -2.35 ± 0.15 | -1.05 ± 0.11
AAUCAGCAAUAUUACGUUCG | -1.51 ± 0.07 | -0.466 ± 0.089
GUAAAGCAAUAUUACGUUGU | -3.6 ± 0.17 | -2.13 ± 0.19
CCUCAGCAAUAUUACGGCUC | -2.77 ± 0.16 | -2.46 ± 0.29
ACACAGCAAUAUUACGCGAG | -1.74 ± 0.053 | -0.504 ± 0.061
GCAAAGCAAUAUUACGCUGU | -3.42 ± 0.26 | -2.84 ± 0.31
UUUAAGCAAUAUUACGUCGU | -2.14 ± 0.21 | -2.07 ± 0.32
GUGCAGCAAUAUUACGACUU | -0.219 ± 0.087 | 0.408 ± 0.093
